In patent US6429304 (University of California, dated 2002):

Molecular target: T1, p80 delta 560-690 (S. purpuratus p80 katanin lacking the C-terminal 130 amino acids), in vitro translated … (Strongylocentrotus purpuratus, UniProt O61585 1-559)
T1 construct: The residues kept are derived from the deletion named; also called delta 560-690 derivative of p80; not shown: 37 amino acid N-terminal S-Tag from pCITE-4a+ (Novagen)
T1 sequence: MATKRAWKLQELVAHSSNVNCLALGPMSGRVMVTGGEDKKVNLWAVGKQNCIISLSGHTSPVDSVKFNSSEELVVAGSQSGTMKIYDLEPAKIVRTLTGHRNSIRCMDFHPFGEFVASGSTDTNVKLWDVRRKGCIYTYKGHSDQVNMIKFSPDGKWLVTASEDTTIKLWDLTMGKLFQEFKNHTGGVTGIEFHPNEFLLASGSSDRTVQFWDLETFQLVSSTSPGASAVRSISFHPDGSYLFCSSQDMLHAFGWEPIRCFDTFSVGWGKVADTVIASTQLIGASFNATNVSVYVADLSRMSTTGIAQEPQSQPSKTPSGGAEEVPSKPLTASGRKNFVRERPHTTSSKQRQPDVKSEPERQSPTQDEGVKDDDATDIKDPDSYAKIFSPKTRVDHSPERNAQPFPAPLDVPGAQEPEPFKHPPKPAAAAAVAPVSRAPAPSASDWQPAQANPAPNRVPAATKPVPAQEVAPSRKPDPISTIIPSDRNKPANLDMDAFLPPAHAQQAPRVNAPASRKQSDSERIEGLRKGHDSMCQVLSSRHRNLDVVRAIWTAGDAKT
Assay: co-translation in rabbit reticulocyte lysate, immunoprecipitation with anti-p60 antibody
Method: In vitro synthesis of proteins directly from plasmid DNAs was accomplished using the Single Tube Protein System 2, T7 (Novagen). […] For immunoprecipitations, lysates were incubated on ice with Pansorbin (Calbiochem)-antibody complexes, washed in NET buffer (50 mM Tris-Cl (pH 7.5), 150 mM NaCl, 0.1% Nonidet P40, 1 mM EDTA (pH 8.0), 0.25% gelatin and 0.02% sodium azide), then resuspended in SDS-PAGE sample buffer. In vitro translation products in both the pellets and supernatants from the immunoprecipitations were resolved by SDS-PAGE, transferred to nitrocellulose, probed with S-protein HRP conjugate (Novagen) and detected by chemiluminescence.

binding result: no binding
B1: in vitro translated S. purpuratus p60 katanin with 37 amino acid N-terminal S-Tag (enzyme)
chain: MSVDEICENTKMGREYALLGNYETSLVYYQGVLQQIQKLLTSVHEPQRKHQWQTIRQELSQEYEHVKNITKTLNGFKSEPAAPEPAPNHRAAPFSHHQHAAKPAAAEPARDPDVWPPPTPVDHRPSPPYQRAARKDPPRRSEPSKPANRAPGNDRGGRGPSDRRGDARSGGGGRGGARGSDKDKNRGGKSDKDKKAPSGEEGDEKKFDPAGYDKDLVENLERDIVQRNPNVHWADIAGLTEAKRLLEEAVVLPLWMPDYFKGIRRPWKGVLMVGPPGTGKTMLAKAVATECGTTFFNVSSASLTSKYHGESEKLVRLLFEMARFYAPSTIFIDEIDSICSKRGTGSEHEASRRVKSELLIQMDGVSGPSAGEESSKMVMVLAATNFPWDIDEALRRRLEKRIYIPLPEIDGREQLLRINLKEVPLADDIDLKSIAEKMDGYSGADITNVCRDASMMAMRRRIQGLRPEEIRHIPKEELNQPSTPADFLLALQKVSKSVGKEDLVKYMAWMEEFGSV
notes: Made in a rabbit reticulocyte coupled transcription-translation reaction; not shown: 37 amino acid N-terminal S-Tag from pCITE-4a+ (Novagen)
